T1: Kss1-GBD (wild-type Kss1 fused to the Gal4 DNA-binding domain) (S. cerevisiae, UniProt P14681 1-368)
T1 sequence (looked up): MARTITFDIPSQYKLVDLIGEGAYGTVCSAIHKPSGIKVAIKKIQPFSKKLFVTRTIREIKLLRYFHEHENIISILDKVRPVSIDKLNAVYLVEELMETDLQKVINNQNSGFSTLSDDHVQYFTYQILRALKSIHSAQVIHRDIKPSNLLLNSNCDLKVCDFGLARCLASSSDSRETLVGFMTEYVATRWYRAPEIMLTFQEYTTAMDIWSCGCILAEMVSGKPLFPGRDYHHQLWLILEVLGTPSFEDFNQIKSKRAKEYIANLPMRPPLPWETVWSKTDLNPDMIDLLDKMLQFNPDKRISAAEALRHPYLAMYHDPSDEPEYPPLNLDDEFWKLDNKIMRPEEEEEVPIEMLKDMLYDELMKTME

T2: GST-Dig1_(93-111) (S. cerevisiae, UniProt Q03063 93-111)
T2 chain (looked up): KKSLKRGRVPAPLNLSDSN

T3: GST-Dig1_(213-452) (S. cerevisiae, UniProt Q03063 213-452)
T3 sequence (looked up): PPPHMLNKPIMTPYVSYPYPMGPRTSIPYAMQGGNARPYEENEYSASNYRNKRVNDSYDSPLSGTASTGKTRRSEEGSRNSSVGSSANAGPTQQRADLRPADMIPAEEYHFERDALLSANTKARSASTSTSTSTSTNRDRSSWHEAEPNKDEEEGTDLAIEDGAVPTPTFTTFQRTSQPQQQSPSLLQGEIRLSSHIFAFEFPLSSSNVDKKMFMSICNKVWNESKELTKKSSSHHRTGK

B1: full-length Dig2-GAD (natural protein, S. cerevisiae, UniProt Q03373 1-323, looked up)
chain: MNKEEQEDPQQEQISTVQENDPRNLQQLGMLLVSPGLDEDRLSEKMISKIKKSRDIEKNQKLLISRLSQKEEDHSGKPPTITTSPAEKTVPFKSLNHSLKRKRVPPALNFSDIQASSHLHGSKSAPPNITRFPQHKNSLRVRYMGRMAPTNQDYHPSVANSYMTATYPYPYTGLPPVPCYPYSSTPTQTHAYEGYYSPMYPGPLYNNGIIPADYHAKRKKLAGRSPHLEDLTSRKRTFVSKHHNGDPIISKTDEDIECSVTKNSLSEGASLNDDADDDNDKERIIIGEISLYDDVFKFEVRDDKNDYMKACETIWTEWHNLKK
B2: Ste12-GAD (Ste12 fused to the Gal4 transcriptional activation domain) (natural protein, S. cerevisiae, UniProt P13574 1-688, looked up)
chain: MKVQITNSRTEEILKVQANNENDEVSKATPGEVEESLRLIGDLKFFLATAPVNWQENQIIRRYYLNSGQGFVSCVFWNNLYYITGTDIVKCCLYRMQKFGREVVQKKKFEEGIFSDLRNLKCGIDATLEQPKSEFLSFLFRNMCLKTQKKQKVFFWFSVAHDKLFADALERDLKRESLNQPSTTKPVNEPALSFSYDSSSDKPLYDQLLQHLDSRRPSSTTKSDNSPPKLESENFKDNELVTVTNQPLLGVGLMDDDAPESPSQINDFIPQKLIIEPNTLELNGLTEETPHDLPKNTAKGRDEEDFPLDYFPVSVEYPTEENAFDPFPPQAFTPAAPSMPISYDNVNERDSMPVNSLLNRYPYQLSVAPTFPVPPSSSRQHFMTNRDFYSSNNNKEKLVSPSDPTSYMKYDEPVMDFDESRPNENCTNAKSHNSGQQTKQHQLYSNNFQQSYPNGMVPGYYPKMPYNPMGGDPLLDQAFYGADDFFFPPEGCDNNMLYPQTATSWNVLPPQAMQPAPTYVGRPYTPNYRSTPGSAMFPYMQSSNSMQWNTAVSPYSSRAPSTTAKNYPPSTFYSQNINQYPRRRTVGMKSSQGNVPTGNKQSVGKSAKISKPLHIKTSAYQKQYKINLETKARPSAGDEDSAHPDKNKEISMPTPDSNTLVVQSEEGGAHSLEVDTNRRSDKNLPDAT
B3: GST-Ste7_(1-98) (domain or fragment, S. cerevisiae, UniProt P06784 1-98, looked up)
chain: MFQRKTLQRRNLKGLNLNLHPDVGNNGQLQEKTETHQGQSRIEGHVMSNINAIQNNSNLFLRRGIKKKLTLDAFGDDQAISKPNTVVIQQPQNEPVLV
B4: GST-Ste5_(241-336) (domain or fragment, S. cerevisiae, UniProt P32917 241-336, looked up)
chain: PENDELKDILISDFLIHKIPDSELSITPQSRFPPYSPLLPPFGLSYTPVERQTIYSQAPSLNPNLILAAPPKERNQIPQKKSNYTFLHSPLGHRRI
B5: Fus3 (wild type), in vitro translated, 35S-labelled (enzyme, S. cerevisiae, UniProt P16892 1-353, looked up)
chain: MPKRIVYNISSDFQLKSLLGEGAYGVVCSATHKPTGEIVAIKKIEPFDKPLFALRTLREIKILKHFKHENIITIFNIQRPDSFENFNEVYIIQELMQTDLHRVISTQMLSDDHIQYFIYQTLRAVKVLHGSNVIHRDLKPSNLLINSNCDLKVCDFGLARIIDESAADNSEPTGQQSGMTEYVATRWYRAPEVMLTSAKYSRAMDVWSCGCILAELFLRRPIFPGRDYRHQLLLIFGIIGTPHSDNDLRCIESPRAREYIKSLPMYPAAPLEKMFPRVNPKGIDLLQRMLVFDPAKRITAKEALEHPYLQTYHDPNDEPEGEPIPPSFFEFDHYKEALTTKDLKKLIWNEIFS
modifications: [35S]methionine label
B6: Fus3-7m2 (D317N), in vitro translated, 35S-labelled (enzyme, S. cerevisiae, UniProt P16892 1-353, looked up)
chain: B5 chain with D317N
modifications: [35S]methionine label
B7: GST-Dig2_(98-114) (domain or fragment, S. cerevisiae, UniProt Q03373 98-114, looked up)
chain: SLKRKRVPPALNFSDIQ
B8: GST-Ste12_(298-473) (domain or fragment, S. cerevisiae, UniProt P13574 298-473, looked up)
chain: AKGRDEEDFPLDYFPVSVEYPTEENAFDPFPPQAFTPAAPSMPISYDNVNERDSMPVNSLLNRYPYQLSVAPTFPVPPSSSRQHFMTNRDFYSSNNNKEKLVSPSDPTSYMKYDEPVMDFDESRPNENCTNAKSHNSGQQTKQHQLYSNNFQQSYPNGMVPGYYPKMPYNPMGGDP
B9: full-length Dig1-GAD (natural protein, S. cerevisiae, UniProt Q03063 1-452, looked up)
chain: MAVSARLRTTAEDTSIAKSTQDPIGDTEISVANAKGSSDSNIKNSPGGNSVGQESELEHVPEEDDSGDKEADHEDSETATAKKRKAQPLKNPKKSLKRGRVPAPLNLSDSNTNTHGGNIKDGNLASSNSAHFPPVANQNVKSAPAQVTQHSKFQPRVQYLGKASSRQSIQVNNSSNSYGKPHMPSAGIMSAMNPYMPMNRYIMSPYYNPYGIPPPHMLNKPIMTPYVSYPYPMGPRTSIPYAMQGGNARPYEENEYSASNYRNKRVNDSYDSPLSGTASTGKTRRSEEGSRNSSVGSSANAGPTQQRADLRPADMIPAEEYHFERDALLSANTKARSASTSTSTSTSTNRDRSSWHEAEPNKDEEEGTDLAIEDGAVPTPTFTTFQRTSQPQQQSPSLLQGEIRLSSHIFAFEFPLSSSNVDKKMFMSICNKVWNESKELTKKSSSHHRTGK
B10: Kss1 (wild type), in vitro translated, 35S-labelled (enzyme, S. cerevisiae, UniProt P14681 1-368, looked up)
chain: T1 sequence (looked up)
modifications: [35S]methionine label

Numbering of substitutions follows the chain as printed. Names and notes keep the numbering of the source. Read-outs that look alike come from different tables or passages of the source.

For test [1], the target named is T1, Kss1-GBD (wild-type Kss1 fused to the …). Description: two-hybrid.
Test [2] has as its target B10. Description: pull-down.
Test [3] concerns the target B5. The test can be described thus: pull-down.
The target in another test is T2, GST-Dig1_(93-111). The test can be described thus: pull-down.
For the test “GST-Dig2_(98-114)”, the target named is B7. Description: pull-down.
A further test has as its target T3, GST-Dig1_(213-452). The test can be described thus: pull-down.
The target in the test “GST-Ste5_(241-336)” is B4. The test can be described thus: pull-down.
For the test “GST-Ste7_(1-98)”, the target named is B3. The test can be described thus: pull-down.
The target of test [4] is B5. The test can be described thus: pull-down. This is another data set of the same source.
Test [5] concerns the target B10. Description: pull-down. The source holds these as a separate data set.

Data on ten molecules can be found in paper PMC2172336 (The Journal of Cell Biology, 2004).

By Kd is commonly meant the constant that tells how readily two partners part at equilibrium.

B1: the “fold above background (two-hybrid reporter)” value (shortened to “fold above background”) in test [1] turned out to be 23 fold.
Turning to B2, in test [1], the “fold above background” value came out at 4 fold.
Turning to B3, the Kd in [2] and in [3] was around 0.1 µM in each case.
B4: the Kd was around 6.5 µM in test [2] and around 1 µM in test [3].
Turning to B5, the “fold higher affinity than Kss1 for the same D-site” value with GST-Dig1_(93-111) and with GST-Dig2_(98-114) was around 17 fold in each case. The “fold higher affinity than for the Dig1 D-site” value with GST-Dig2_(98-114) was around 3 fold. The “percent of input bound” value is 0.6 % of input with GST-Dig1_(213-452), 12.6 % of input in the test with GST-Ste5_(241-336) and 14 % of input in the test with GST-Ste7_(1-98).
Regarding B6, the “percent of wild-type binding” value with GST-Ste7_(1-98) is < 1 % of wild-type.
In test [4], B7 returned a Kd of around 1 µM.
As for B8, the Kd in [5] is around 2 µM.
For the molecule B9, the “fold above background” value in test [1] is 3 fold.
Turning to B10, the “fold higher affinity than for the Dig1 D-site” value with GST-Dig2_(98-114) was around 3 fold. The “percent of input bound” value in the test with GST-Dig1_(213-452) was 1.3 % of input; with GST-Ste5_(241-336) it was 3.7 % of input; in the test with GST-Ste7_(1-98), 9 % of input.
